The values below are quoted from earlier work in patent publication US20230295339A1, “METHOD FOR TREATING A GD2-POSITIVE CANCER” (EUSA PHARMA (UK) LIMITED, priority 2020, published 2023).

For data set [1] the following is noted: for Kd: read-out: apparent kD for binding to GD2.

B1: dinutuximab beta: chimeric (murine/human) anti-GD2 IgG1 monoclonal antibody produced in CHO cells (antibody, chains of the INN, looked up, V domains shown)
VH: EVQLLQSGPELEKPGASVMISCKASGSSFTGYNMNWVRQNIGKSLEWIGAIDPYYGGTSYNQKFKGRATLTVDKSSSTAYMHLKSLTSEDSAVYYCVSGMEYWGQGTSVTVSS
VL: EIVMTQSPATLSVSPGERATLSCRSSQSLVHRNGNTYLHWYLQKPGQSPKLLIHKVSNRFSGVPDRFSGSGSGTDFTLKISRVEAEDLGVYFCSQSTHVPPLTFGAGTKLELK
As for B1, the “tolerability of cumulative dose in maintenance treatment” value (10 days, 10 mg/m^2/day, 35-day intervals, 5 cycles, cumulative 500 mg/m^2 in 175 days) is “feasible and well-tolerated”. Further, for the setting “in vivo”, the “toxicity in subsequent cycles” value was “decrease of dinutuximab beta toxicity in subsequent cycles”.

B2: Unituxin: chimeric anti-GD2 antibody ch14.18 produced in SP2/0 murine hybridoma cells (antibody, chains of the INN, looked up, V domains shown)
VH: EVQLLQSGPELEKPGASVMISCKASGSSFTGYNMNWVRQNIGKSLEWIGAIDPYYGGTSYNQKFKGRATLTVDKSSSTAYMHLKSLTSEDSAVYYCVSGMEYWGQGTSVTVSS
VL: EIVMTQSPATLSVSPGERATLSCRSSQSLVHRNGNTYLHWYLQKPGQSPKLLIHKVSNRFSGVPDRFSGSGSGTDFTLKISRVEAEDLGVYFCSQSTHVPPLTFGAGTKLELK
On to B2, for which, in data set [1], the “binding preference for GD2 versus the related glycan structure GQ2” value was 1000, the “binding preference for GD2 versus the related glycan structure GT2” value is on record as > 5000 and the Kd is 60 nM.

B3: humanized 3F8: murine anti-GD2 antibody 3F8 humanized as naxitamab (antibody, chains of the INN, looked up, V domains shown)
VH: QVQLVESGPGVVQPGRSLRISCAVSGFSVTNYGVHWVRQPPGKGLEWLGVIWAGGITNYNSAFMSRLTISKDNSKNTVYLQMNSLRAEDTAMYYCASRGGHYGYALDYWGQGTLVTVSS
VL: EIVMTQTPATLSVSAGERVTITCKASQSVSNDVTWYQQKPGQAPRLLIYSASNRYSGVPARFSGSGYGTEFTFTISSVQSEDFAVYFCQQDYSSFGQGTKLEIK
For B3, in data set [1], the “binding preference for GD2 versus the related glycan structure GQ2” value is reported as 200, the “binding preference for GD2 versus the related glycan structure GT2” value was 1500 and the Kd is 7.7 nM.
